Measurements taken from patent US20250215089A1.

Experiments:
human PD-L1 (human) [1] = target: human PD-L1 (human) (UniProt Q9NZQ7); test: cell-based or functional assay
[2] = target: cynomolgus monkey PD-L1 (cynomolgus monkey); test: FACS, CHO-K1/cyPD-L1 cells
human CD40 (human) [3] = target: human CD40 (human) (UniProt P25942); test: FACS, CHO-K1/hCD40 cells
human PD-L1 (human) [4] = target: human PD-L1 (human) (UniProt Q9NZQ7); test: FACS, NCI-H226 cells
human PD-L1 (human) [5] = target: human PD-L1 (human) (UniProt Q9NZQ7); test: FACS, CHO-K1/hPD-L1 cells
[6] = target: cynomolgus monkey CD40 (cynomolgus monkey); test: FACS, CHO-K1/cyCD40 cells
human CD40 (human) [7] = target: human CD40 (human) (UniProt P25942); test: FACS, Raji cells

Chain of human PD-L1 (human) (Q9NZQ7 19-290): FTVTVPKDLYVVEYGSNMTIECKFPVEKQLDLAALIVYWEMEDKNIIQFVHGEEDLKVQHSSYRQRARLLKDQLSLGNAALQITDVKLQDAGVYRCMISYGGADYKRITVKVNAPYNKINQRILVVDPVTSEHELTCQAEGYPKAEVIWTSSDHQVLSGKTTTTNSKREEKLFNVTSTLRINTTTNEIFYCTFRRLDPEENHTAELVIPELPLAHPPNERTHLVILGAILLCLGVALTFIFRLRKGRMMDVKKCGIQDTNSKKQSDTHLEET
Chain of human CD40 (human) (P25942 21-277): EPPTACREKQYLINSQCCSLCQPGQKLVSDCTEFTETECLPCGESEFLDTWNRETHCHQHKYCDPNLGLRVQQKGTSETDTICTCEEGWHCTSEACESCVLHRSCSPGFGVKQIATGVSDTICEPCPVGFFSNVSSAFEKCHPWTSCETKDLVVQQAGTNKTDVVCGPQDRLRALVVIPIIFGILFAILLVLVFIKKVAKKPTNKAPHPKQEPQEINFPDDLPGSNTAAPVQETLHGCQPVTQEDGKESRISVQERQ

Row | Maximum RLU, Jurkat-NFAT-hPD1 reporter (human PD-L1 (human) [1]) | Maximum MFI [2] | Maximum MFI (human CD40 (human) [3]) | Maximum MFI (human PD-L1 (human) [4]) | Maximum MFI (human PD-L1 (human) [5]) | Maximum MFI [6] | Maximum MFI (human CD40 (human) [7]) | Substance
1 | 403 RLU | 50 MFI | 23 MFI | 55 MFI | 170 MFI | 59 MFI | 78 MFI | Isotype (antibody)
2 | 2370 RLU | – | – | – | 86 MFI | – | – | hIgG1 (antibody)
